Reference: article PMC2270346

Target: mouse Wnt3a, His-tagged (mouse) (UniProt P27467)
UniProt P27467, sequence (P27467 19-352): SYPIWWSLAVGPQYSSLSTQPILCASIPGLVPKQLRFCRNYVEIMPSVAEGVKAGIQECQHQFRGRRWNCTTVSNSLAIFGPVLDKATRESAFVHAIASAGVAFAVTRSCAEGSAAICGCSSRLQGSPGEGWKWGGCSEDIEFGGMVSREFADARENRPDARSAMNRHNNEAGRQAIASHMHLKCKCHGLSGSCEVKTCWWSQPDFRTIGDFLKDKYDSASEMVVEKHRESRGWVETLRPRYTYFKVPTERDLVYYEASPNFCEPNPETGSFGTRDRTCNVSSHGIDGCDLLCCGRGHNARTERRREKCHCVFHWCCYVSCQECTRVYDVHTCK

suppression of Wnt3a-induced beta-catenin-TCF-regulated transcription (SUPER8XTOPFLASH reporter) in HEK293T and Huh-7 cells cotransfected with Wnt3a [%] | Substance
> 80 | human FZC18 module, myc-tagged (domain or fragment)
> 80 | human V3Nter, V5-tagged (domain or fragment)
